Experimental data from the DeepSol protein solubility set.

Experiment: soluble on expression in E. coli; label from the status in PepcDB or PDB records

Row | Sequence | soluble on expression in E. coli
1 | MKQIAFIGLGHMGAPMATNLLKAGYLLNVFDLVQSAVDGLVAAGASAARSARDAVQGADVVISMLPASQHVEGLYLDDDGLLAHIAPGTLVLECSTIAPTSARKIHAAARERGLAMLDAPVSGGTAGAAAGTLTFMVGGDAEALEKARPLFEAMGRNIFHAGPDGAGQVAKVCNNQLLAVLMIGTAEAMALGVANGLEAKVLAEIMRRSSGGNWALEVYNPWPGVMENAPASRDYSGGFMAQLMAKDLGLAQEAAQASASSTPMGSLALSLYRLLLKQGYAERDFSVVQKLFDPTQGQ | soluble
2 | STSPTATKYDVFLSFRGVDTRRNFISFLYKEFVRRKIRTFKDDKELENGRRISPELKRAIEESKFAVVVVSVNYAASPWCLDELVKIMDFENKGSITVMPIFYGVDPCHLRRQIGDVAEQFKKHEAREEDHEKVASWRRALTSLASISGDCSSKCEDEAKLVDEIADKISKNLMTVTTISNGKNLVGIDTHMKALNKKLDLNSNKSLRVVGIWARGYNGRSALAKYVYQDICHHFDSHCFLGSVKRISQGRHLSHLHEEFLIRIQGSKHNLKDQKVLLVADDVYKLEQLDALAEDFNGFGPGSVVIITTQDKHLFVSAGIKLVYEVELLKFQKVCELFRQFAFKKRDISAAVKLVYYRATNWLGCLSGRSG | soluble
3 | MSLDSSMKISKVDNIGNHEDIEVNNAEIALSLASQMVGSGEEVVSMSIKYSKERVAFGKPIGSYQAIKHRVVNDAIDVELARSLILEAAENIKYAWIAKDLANKKIPKAILSGIQVHGGIGFTDDLDIHLHLRRALTLSKLYNSKVNISEFLQPIEGHHHHHH | not soluble
4 | MRGSHHHHHHLVPRGSVQVISSYDQFKQVTGGDKVVVIDFWATWCGPCKMIGPVFEKISDTPAGDKVGFYKVDVDEQSQIAQEVGIRAMPTFVFFKNGQKIDTVVGADPSKLQAAITQHSA | soluble
5 | MSEKPLTKTDYLMRLRRCQTIDTLERVIEKNKYELSDNELAVFYSAADHRLAELTMNKLYDKIPSSVWKFIR | soluble
6 | MSLADSSYYDEDYRPQYHFTPEANWMNDPNGMVYYAGEYHLFYQYHPYGLQWGPMHWGHAVSKDLVTWEHLPVALYPDEKGTIFSGSAVVDKNNTSGFQTGKEKPLVAIYTQDREGHQVQSIAYSNDKGRTWTKYAGNPVIPNPGKKDFRDPKVFWYEKEKKWVMVLAAGDRILIYTSKNLKQWTYASEFGQDQGSHGGVWECPDLFELPVDGNPNQKKWVMQVSVGNGAVSGGSGMQYFVGDFDGTHFKNENPPNKVLWTDYGRDFYAAVSWSDIPSTDSRRLWLGWMSNWQYANDVPTSPWRSATSIPRELKLKAFTEGVRVVQTPVKELETIRGTSKKWKNLTISPASHNVLAGQSGDAYEINAEFKVSPGSAAEFGFKVRTGENQFTKVGYDRRNAKLFVDRSESGNDTFNPAFNTGKETAPLKPVNGKVKLRIFVDRSSVEVFGNDGKQVITDIILPDRSSKGLELYAANGGVKVKSLTIHPLKKVWGTTPFMSNMTGWTTVNGTWADTIEGKQGRSDGDSFILSSASGSDFTYESDITIKDGNGRGAGALMFRSDKDAKNGYLANVDAKHDLVKFFKFENGAASVIAEYKTPIDVNKKYHLKTEAEGDRFKIYLDDRLVIDAHDSVFSEGQFGLNVWDATAVFQNVTKESEGHHHHHH | soluble
7 | MVSSQKLEKPIEMGSSEPLPIADGDRRRKKKRRGRATDSLPGKFEDMYKLTSELLGEGAYAKVQGAVSLQNGKEYAVKIIEKQAGHSRSRVFREVETLYQCQGNKNILELIEFFEDDTRFYLVFEKLQGGSILAHIQKQKHFNEREASRVVRDVAAALDFLHTKDKVSLCHLGWSAMAPSGLTAAPTSLGSSDPPTSASQVAGTTGIAHRDLKPENILCESPEKVSPVKICDFDLGSGMKLNNSCTPITTPELTTPCGSAEYMAPEVVEVFTDQATFYDKRCDLWSLGVVLYIMLSGYPPFVGHCGADCGWDRGEVCRVCQNKLFESIQEGKYEFPDKDWAHISSEAKDLISKLLVRDAKQRLSAAQVLQHPWVQGQAPEKGLPTPQVLQRNSSTMDLTLFAAEAIALNRQLSQHEENELAEEPEALADGLCSMKLSPPCKSRLARRRALAQAGRGEDRSPPTAL | soluble
8 | MSLATIKDVAQRAGVSPSTASRAMHGSKIISKPTRDKVIKAARELNYAPDFNAQNLATKASNTIGVVLPVDHHEIFSNPFFLEMIRGINEVCSKNGAMTTLATGISSDELVHNIDVMIAQGHIKTFILLYSEKNDPVVERLKQFDVQYVVIGKPYQDVNKTSYVDNDNIQAGTDAAQYLIDHGHRRIGFLYSDLSRMVQSDRMLGYQRVMMQNQLPNIMLEERFETHAAGVKTLHKFFEQYPDVTGFVAVDDMLALKLQQVLHNDPNWKVKQFSLIGFNNSIFSDLAHPMLTSIAVFPQRLGEEAAKIAMADHPADELSTAVIVPHQIVKRHSVHQIKSEGHHHHHH | soluble
9 | MLAAGMSRRMGFNKLLAPLCGKRVLWHVLELVARFEGVLEGAVVVTSGEVADVLRRERPPGRRGLFRVVVNREQWRGLSHSIRLGVEASPGARAYLFFNGDRPFVSKHTVARVLALYMARRPLIAAPMAGGAIAPPVVVDSRLRGELLRLSGDTGVRSLFGKYRDSLAVVEVDDPGLHLDVDTPEDLERASKMCSQLGGGPREKPLEHHHHHH | not soluble
10 | MGSDKIHHHHHHMPTLPAYPLFREHSLLYLAHMGISKLKPSNSATTLLQLAREVLAIEAREVQALAGRLDQSFVNAVELILQCRGRVVVTGIGKSGHIGNKIAATLASTGTPAFFMHPAEASHGDLGMITRDDVVIALSNSGEADELLALLPPLKRIGTPIISISGNRHSTLSKAADIFLDAHVSQEACPLGLAPTASTTAALALGDALAVTLLDQRGFSREDFALAHPGGSIGRRLLLHVQDVMRSGDDIPAVSVSSSLKDGLLEMSRKGLGMTAVLDAADKPVGIFTDGDLRRAFEAGIDINGTRMADVMHAHPRSILPGQLAVDALALMEQYSISSLLVVDQQGNLVGALNMHDLLMAKVV | not soluble
11 | STSLPQISTLMREKSVENKLKVKAKDDHMVPSGLYEVRAIQLPGGSWRHYYVDHSSKETYWILPYSHPDGASSHPLEKLPVYLPSYEECVDETNPLAVPEVCSPARD | soluble
12 | MKFELDTTDGRARRGRLVFDRGVVETPCFMPVGTYGTVKGMTPEEVEATGAQIILGNTFHLWLRPGQEIMKLHGDLHDFMQWKGPILTDSGGFQVFSLGDIRKITEQGVHFRNPINGDPIFLDPEKSMEIQYDLGSDIVMIFDECTPYPADWDYAKRSMEMSLRWAKRSRERFDSLGNKNALFGIIQGSVYEDLRDISVKGLVDIGFDGYAVGGLAVGEPKADMHRILEHVCPQIPADKPRYLMGVGKPEDLVEGVRRGIDMFDCVMPTRNARNGHLFVTDGVVKIRNAKYKSDTGPLDPECDCYTCRNYSRAYLHHLDRCNEILGARLNTIHNLRYYQRLMAGLRKAIEEGKLESFVTDFYQRQGREVPPLNVD | soluble
13 | MATTKRVLYVGGLAEEVDDKVLHAAFIPFGDITDIQIPLDYETEKHRGFAFVEFELAEDAAAAIDNMNESELFGRTIRVNLAKPMRIKE | soluble
14 | MNRLLQQSVSRGPLAVRASSTITTKPPTPNQITKNNAQFDKVTHTGQAWDQSDYRLQRFDISKKSVNPNVAMHLIDQRPPEDCGDKRVVFCDGGHPALGHPKVYINLDKPGVHACGYCGNRFYNSHATKAEDMKIQHLNC | not soluble
15 | MKKILVTGSLGQIGSELVMKLRDVYGASNVIATDIRETDSEVVTSGPFETLDVTDGQKLHDIAKRNEVDTIIHLAALLSATAEKNPLFAWNLNMGGLVNALEAARELNCKFFTPSSIGAFGPSTPKDNTPQDTIQRPTTMYGVNKVAGELLCDYYHQKFGVDTRGVRFPGLISYVAPPGGGTTDYAVEIYYEAIKKGAYTSYIAEGTYMDMMYMPDALQAIISLMEADPSKLVHRNAFNITAMSFEPEQIAASIRKHIPTFTMDYAVDPARQTIADSWPNSIDATAAMKEWGFKAEYDLDKMTTDMLAKLKKKLTAELVMN | not soluble
16 | MATSVLCCLRCCRDGGTGHIPLKEMPAVQLDTQHMGIWGIGVATQKVNLNQIPLGRDMHSLVMRNDGALYHNNEEKNRLPANSLPQEGDVVGITYDHVELNVYLNGKNMHCPASGIRGTVYPVVYDDDSAILDCQFSEFYHTPPPGFEKILFEQQIF | not soluble
